According to US20190367606A1 (CENTRE FOR DRUG RESEARCH AND DEVELOPMENT, published 2019):
Blank lines part the entries; values can stand above or below the molecule they belong to.

Tests used:
human podocalyxin [1] = target: T1, human podocalyxin (human, UniProt O00592 23-558); assay: flow cytometry, control antibody, MDA-MB-231 cells
T1 construct: also called hPodo; hPodocalyxin
T1 sequence: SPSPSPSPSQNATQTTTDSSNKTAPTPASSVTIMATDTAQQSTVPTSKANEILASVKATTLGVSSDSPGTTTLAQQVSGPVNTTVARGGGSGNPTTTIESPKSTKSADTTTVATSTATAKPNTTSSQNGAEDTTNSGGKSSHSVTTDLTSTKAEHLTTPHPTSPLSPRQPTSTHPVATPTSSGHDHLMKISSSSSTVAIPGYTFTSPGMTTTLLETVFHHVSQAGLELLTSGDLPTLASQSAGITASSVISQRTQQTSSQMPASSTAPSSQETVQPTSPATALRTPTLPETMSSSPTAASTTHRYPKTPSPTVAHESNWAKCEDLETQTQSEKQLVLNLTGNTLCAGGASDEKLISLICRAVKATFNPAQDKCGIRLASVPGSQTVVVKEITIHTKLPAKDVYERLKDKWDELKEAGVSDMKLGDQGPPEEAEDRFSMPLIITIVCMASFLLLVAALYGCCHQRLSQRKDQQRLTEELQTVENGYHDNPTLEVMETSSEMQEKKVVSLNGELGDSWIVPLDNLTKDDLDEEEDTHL

human podocalyxin [2] = target: T1, human podocalyxin; assay: flow cytometry, control antibody, HUVEC cells
human podocalyxin [3] = target: T1, human podocalyxin; assay: flow cytometry, control antibody, OVCAR10 cells
human podocalyxin [4] = target: T1, human podocalyxin; assay: flow cytometry, control antibody, MCF7 cells
human podocalyxin [5] = target: T1, human podocalyxin; assay: flow cytometry, control antibody, OVCAR3 cells
human podocalyxin [6] = target: T1, human podocalyxin; assay: flow cytometry, control antibody, SKOV3 cells
human podocalyxin [7] = target: T1, human podocalyxin; assay: flow cytometry, control antibody, 293 HEK cells
human podocalyxin [8] = target: T1, human podocalyxin; assay: flow cytometry, control antibody, CaOV3 cells
human podocalyxin [9] = target: T1, human podocalyxin; assay: flow cytometry, control antibody, T47-D cells
human podocalyxin [10] = target: T1, human podocalyxin; assay: flow cytometry, control antibody, A172 cells
human podocalyxin [11] = target: T1, human podocalyxin; assay: flow cytometry, control, Neat, hPodo/MDA-MB-231 transient transfectants
human podocalyxin [12] = target: T1, human podocalyxin; assay: flow cytometry, control, 1:125, MDA-MB-231 cells
human podocalyxin [13] = target: T1, human podocalyxin; assay: flow cytometry, control, Neat, MDA-MB-231 cells
human podocalyxin [14] = target: T1, human podocalyxin; assay: flow cytometry, control, 2:15 (so in the source), hPodo/MDA-MB-231 transient transfectants
human podocalyxin [15] = target: T1, human podocalyxin; assay: flow cytometry, control, 2:15 (so in the source), MDA-MB-231 cells
human podocalyxin [16] = target: T1, human podocalyxin; assay: flow cytometry, control, 1:5, hPodo/MDA-MB-231 transient transfectants
human podocalyxin [17] = target: T1, human podocalyxin; assay: flow cytometry, control, 1:5, MDA-MB-231 cells
human podocalyxin [18] = target: T1, human podocalyxin; assay: flow cytometry, control, 1:125, hPodo/MDA-MB-231 transient transfectants
human podocalyxin [19] = target: T1, human podocalyxin; assay: cross competition FACS, MDA-MB-231 cells; row antibody (isotype control) unlabelled 25 ug/mL first; competitor (detected): B-Ova 12 5 ug/mL (control)
human podocalyxin [20] = target: T1, human podocalyxin; assay: cross competition FACS, MDA-MB-231 cells; FACS Buffer row (no unlabelled antibody); B-mlgG1 5 ug/mL (control)
human podocalyxin [21] = target: T1, human podocalyxin; assay: cross competition FACS, MDA-MB-231 cells; row antibody (isotype control) unlabelled 25 ug/mL first; competitor (detected): B-mlgG1 5 ug/mL (control)
human podocalyxin [22] = target: T1, human podocalyxin; assay: cross competition FACS, MDA-MB-231 cells; row antibody (isotype control) unlabelled 25 ug/mL first; competitor (detected): B-3G2.2 5 ug/mL
human podocalyxin [23] = target: T1, human podocalyxin; assay: cross competition FACS, MDA-MB-231 cells; row antibody (isotype control) unlabelled 25 ug/mL first; competitor (detected): biotinylated Rb/Hu Podo83 5 ug/mL
human podocalyxin [24] = target: T1, human podocalyxin; assay: flow cytometry, well H03 (right column, cell type not labelled: MDA-MB-231 or MDA-MB-231/hPodo); vertical gate at FL4-H about 10^3.2; the gate differs from that of the Ab-1 panels
human podocalyxin [25] = target: T1, human podocalyxin; assay: flow cytometry, well H01 (left column, cell type not labelled: MDA-MB-231 or MDA-MB-231/hPodo); vertical gate at FL4-H about 10^3.2, cutting the right edge of the control population; the gate differs from that of the Ab-1 panels
human podocalyxin [26] = target: T1, human podocalyxin; assay: flow cytometry, supernatant 1:5, MDA-MB-231 cells
Description: (§1) The following antibodies were transiently transfected in 293HEK cells, transfected cells were incubated for 96 hours, antibody containing supernatant was then serially titrated in FACS sample buffer. The following supernatants were used as test samples:
(§2) MDA transient transfectants were established as essentially described above in Example 1. MDA transient transfectants and MDA-MB-231 cells were seeded in 96-well v bottom plates at 75,000 cells/well. Cells were pelleted by centrifugation at 400 g for 3 min. Supernatant was removed. The cell pellets were resuspended in 20 μl of the antibody or control supernatants. The plate was incubated on ice for 1 hour.
(§3) The cells were washed by adding 200 μl FACS buffer to dilute unbound antibody. The plate was centrifuged at 400 g for 3 min to pellet cells. The supernatant was removed and repeated. The cell pellets were resuspended in 25 μl of either goat anti-Hu IgG Fc-Alexa647, goat anti-Mouse IgG Fc-Alexa647, or goat anti-rabbit IgG0Fc-A647 (2 μg/ml) and 7A.A.D (2.5 μg/ml). The plates were incubated on ice for 0.5 hours. The wash procedure was again repeated 2×. The cell pellets were finally resuspended in 75 μl FACS buffer and read on the HTFC™ Screening System (IntelliCyt Corporation) (3 sec sip, 1.5 up time) and analyzed on the HyperView® software (IntelliCyt Corporation).

human podocalyxin [27] = target: T1, human podocalyxin; assay: flow cytometry, supernatant 1:125, MDA-MB-231 cells
Description: as §1, §2, §3

human podocalyxin [28] = target: T1, human podocalyxin; assay: flow cytometry, supernatant Neat, MDA-MB-231 cells
Description: as §1, §2, §3

human podocalyxin [29] = target: T1, human podocalyxin; assay: flow cytometry, supernatant 2:15 (so in the source), MDA-MB-231 cells
Description: as §1, §2, §3

human podocalyxin [30] = target: T1, human podocalyxin; assay: flow cytometry titration on 293-6E cells (endogenous podocalyxin), 24 hours at 4 C
Description: (§4) The affinities of huPodo 83 1:1 and huPodo 83 2:1 antibodies were determined against endogenously expressed podocalyxin on 293 HEK cells. 293-6E cells were seeded in 96-well v bottom plates at 100,000 cells/well. The cells were pelleted at 400 g for 3 min and the supernatant was discarded. The cells were placed on ice and antibody 1:3 titrations were prepared using ice cold medium. The cells were resuspended in the prepared antibody titrations at 25 μl/well and incubated at 4° C. for either 24 or 48 hours. 200 μl 1% FBS/PGS (FACS buffer) was added to each well. The cells were pelleted at 400 g for 3 min and supernatant removed. The wash was repeated 2 more times. The cells were resuspended in goat anti-human IgGFc-A647 (2 μg/ml)+2.5 μg/ml 7AAD and incubated on ice for 30 min. The cells were washed as above and resuspended in 50 μl FACS buffer. The cells were analyzed by flow cytometry using the HTFC™ Screening System (IntelliCyt Corporation) (3 sec sip, 1.5 sec up) and the C6 cytometer (Becton Dickenson).

human podocalyxin [31] = target: T1, human podocalyxin; assay: kinetic exclusion assay (KinExA 3200), MDA-MB-231 cells
Description: The concentration dependence of free anti-podocalyxin antibody as a function of MDA-MB231 cell number was determined using a KinExA 3200 instrument (Sapidyne Instruments). Briefly, MDA-MB-231 cells, which express endogenous podocalyxin, were titrated 1:2 from 10×10⁶ cells/mL down 12 steps, and incubated with a fixed concentration of anti-podocalyxin antibodies. MDA-MB231 cells and cell bound antibodies were then isolated by centrifugation. Supernatant containing free, unbound antibody was then transferred to a new tube. The supernatant containing free unbound antibody was passed over the column containing PMMA beads coated with a goat anti-IgG-Fc capture antibody. The amount of free antibody captured on the PMMA beads was then measured using a goat anti-IgG-Fc-A647. This process was repeated for every cell concentration. For each sample assayed a new column of PMMA beads with the goat anti-IgG-Fc capture antibody was packed. The concentration of free antibody over the entire 12 step dilution series was then used to determine the antibody Kd's using the standard Kd template in the KineExA Pro Software (Sapidyne Instruments).

human podocalyxin [32] = target: T1, human podocalyxin; assay: flow cytometry titration on 293-6E cells (endogenous podocalyxin), 48 hours at 4 C
Description: as §4

human podocalyxin [33] = target: T1, human podocalyxin; assay: flow cytometry, supernatant 2:15 (so in the source), hPodo/MDA-MB-231 transient transfectants
Description: as §1, §2, §3

human podocalyxin [34] = target: T1, human podocalyxin; assay: flow cytometry, supernatant 1:5, hPodo/MDA-MB-231 transient transfectants
Description: as §1, §2, §3

human podocalyxin [35] = target: T1, human podocalyxin; assay: kinetic exclusion assay (KinExA 3200), A172 cells
human podocalyxin [36] = target: T1, human podocalyxin; assay: flow cytometry, supernatant 1:125, hPodo/MDA-MB-231 transient transfectants
Description: as §1, §2, §3

human podocalyxin [37] = target: T1, human podocalyxin; assay: flow cytometry, supernatant Neat, hPodo/MDA-MB-231 transient transfectants
Description: as §1, §2, §3

flow cytometry fluorescence (name not given) (human podocalyxin [11]): 762
flow cytometry fluorescence (name not given) (human podocalyxin [12]): 431
flow cytometry fluorescence (name not given) (human podocalyxin [13]): 574
flow cytometry fluorescence (name not given) (human podocalyxin [14]): 617
flow cytometry fluorescence (name not given) (human podocalyxin [15]): 438
flow cytometry fluorescence (name not given) (human podocalyxin [16]): 660
flow cytometry fluorescence (name not given) (human podocalyxin [17]): 467
flow cytometry fluorescence (name not given) (human podocalyxin [18]): 645
Molecule: Rb IgG (antibody)

FACS signal of the biotinylated antibody named under assay (human podocalyxin [19]): 458
FACS signal of the biotinylated antibody (human podocalyxin [20]): 419
FACS signal of the biotinylated antibody named under assay (human podocalyxin [21]): 414
FACS signal of the biotinylated antibody named under assay (human podocalyxin [22]): 26600
FACS signal of the biotinylated antibody named under assay (human podocalyxin [23]): 124000
Molecule: mlgG1 (antibody)

flow cytometry fluorescence (name not given) (human podocalyxin [26]): 121000
flow cytometry fluorescence (name not given) (human podocalyxin [27]): 50600
flow cytometry fluorescence (name not given) (human podocalyxin [28]): 143000
flow cytometry fluorescence (name not given) (human podocalyxin [29]): 102000
IC50 (human podocalyxin [30]): 0.0295 µg/mL
Kd (human podocalyxin [31]): 0.0456 nM
IC50 (human podocalyxin [32]): 0.0305 µg/mL
flow cytometry fluorescence (name not given) (human podocalyxin [33]): 155000
flow cytometry fluorescence (name not given) (human podocalyxin [34]): 99300
Kd (human podocalyxin [35]): 0.103 nM
flow cytometry fluorescence (name not given) (human podocalyxin [36]): 58500
flow cytometry fluorescence (name not given) (human podocalyxin [37]): 79000
B1: Rb/Hu Podo83 (Podo83 rabbit VH and VL, human IgG1 chimera) (antibody, V domains shown)
VH: QSLAESGGRLVTPGTPLTLTCTASGIDLSSYAMGWVRQAPGKGLEYIGFIYASGSIFYASWAKGRFTISKTSSTTVDLKMTSLTTEDTATYFCARAGYYFGGNYDLNLWGQGTLVTVSS
VL: DIVLTQTPASVEVAVGGTVTIKCQASQSISNYLAWYQRKPGQPPRLLIYRASTLASGVSSRFKGSGSGTQFTLTISGVECADAATYYCQQGYVSNNLDNIFGGGTEVVVK
notes: Rabbit variable domains cloned into human IgG1 and human Ig kappa constant region constructs (pTT5/IgG1, pTT5/Igk); also called anti-PODO; Ab-1

Second part, the molecule before the results:

Molecule: MsIgG2a (antibody)
Live cell GeoMean FL (geometric mean fluorescence units) (human podocalyxin [1]): 478
Live cell GeoMean FL (geometric mean fluorescence units) (human podocalyxin [2]): 484
Live cell GeoMean FL (geometric mean fluorescence units) (human podocalyxin [3]): 618
Live cell GeoMean FL (geometric mean fluorescence units) (human podocalyxin [4]): 1130
Live cell GeoMean FL (geometric mean fluorescence units) (human podocalyxin [5]): 708
Live cell GeoMean FL (geometric mean fluorescence units) (human podocalyxin [6]): 485
Live cell GeoMean FL (geometric mean fluorescence units) (human podocalyxin [7]): 556
Live cell GeoMean FL (geometric mean fluorescence units) (human podocalyxin [8]): 892
Live cell GeoMean FL (geometric mean fluorescence units) (human podocalyxin [9]): 787
Live cell GeoMean FL (geometric mean fluorescence units) (human podocalyxin [10]): 797

Molecule: Control Rb/HuIgG1 (antibody)
Live cell GeoMean FL (geometric mean fluorescence units) (human podocalyxin [1]): 477
Live cell GeoMean FL (geometric mean fluorescence units) (human podocalyxin [2]): 489
Live cell GeoMean FL (geometric mean fluorescence units) (human podocalyxin [3]): 653
Live cell GeoMean FL (geometric mean fluorescence units) (human podocalyxin [4]): 657
Live cell GeoMean FL (geometric mean fluorescence units) (human podocalyxin [5]): 629
Q2-LR % of gated cells (FL4-H above the gate) (human podocalyxin [24]): 3.5%
Live cell GeoMean FL (geometric mean fluorescence units) (human podocalyxin [7]): 446
Q2-LR % of gated cells (FL4-H above the gate) (human podocalyxin [25]): 17.2%
Live cell GeoMean FL (geometric mean fluorescence units) (human podocalyxin [8]): 767
Live cell GeoMean FL (geometric mean fluorescence units) (human podocalyxin [9]): 667
Live cell GeoMean FL (geometric mean fluorescence units) (human podocalyxin [10]): 644
